# Results reported in patent US20200308303A1 (KATHOLIEKE UNIVERSITEIT LEUVEN, published 2020).
# Target: ovine ADAMTS13 (sheep (ovine))
# Assay: cell-based or functional assay
binder,measurement,value
"monoclonal anti-ADAMTS13 antibody 17C7 (antibody, V domains shown, Biotinylated when used as detector; the site is not stated and the letters cannot carry it.) VH: EVQLVESGGDLVKSGGSLKLSCAASGFIFSNYAMSWVRQTPEKRLEWGATITTGGFYTFYSDSVKGRFTISRDNAKNTLYLQMSSLRSEDTAMYYCARHRYDDYYALDYWGQGTSVTVSS VL: ENVLTQSPAIMSTSPGEKVTMTCNVSSSVSYMRWFQQKSSTSPKLWIYDTSKLASGVPGRFSGSGSGHSYSLTISSMEADDVATYYCFQGNGYPLTFGAGTKLELK","half maximal inhibitory concentration (IC50) of ADAMTS13 activity in ovine plasma, FRETS-VWF71 assay",2.4 µg/mL
